In the supplement of paper PMC9112550, “Optimization of the antimicrobial peptide Bac7 by deep mutational scanning” (BMC Biology, 2022):

system: Escherichia coli TOP10; experiment: shrunken log2 fold change of peptide-encoding DNA abundance (4.5 h post-induction vs induction); higher = less antimicrobial activity (less host growth inhibition); conditions: time post-induction: 4.5 h; library: site-saturation at positions 5, 18, 19, 20
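Further: peptides expressed intracellularly from a pBAD plasmid library in pooled LB shake-flask culture, induced with 0.3% L-arabinose, DNA abundance read by NGS, three biological replicates, DESeq2 with apeglm shrinkage.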

RRIRWRPPRLPRPRPRPGHSPRP and RRIRTRPPRLPRPRPRPHCYPRP are within 0.2 log units of each other in “shrunken log2 fold change” value: 0.0135 for the first, -0.136 for the second.

RRIRGRPPRLPRPRPRPQKWPRP and RRIRSRPPRLPRPRPRPKLDPRP are within 0.2 log units of each other in “shrunken log2 fold change” value: 0.0681 for the first, -0.037 for the second.

RRIRLRPPRLPRPRPRPMAFPRP and RRIRQRPPRLPRPRPRPMQFPRP are within 0.2 log units of each other in “shrunken log2 fold change” value: -0.127 for the first, 0.0624 for the second.

Going from RRIRSRPPRLPRPRPRPMSPPRP to RRIRKRPPRLPRPRPRPDIVPRP, the “shrunken log2 fold change” value rises from -0.125 to 1.54.

Compared with RRIRCRPPRLPRPRPRPMIAPRP, RRIRIRPPRLPRPRPRPMSTPRP is lower in “shrunken log2 fold change” value: 0.111 for the first, -0.211 for the second.

Going from RRIRDRPPRLPRPRPRPYPEPRP to RRIRPRPPRLPRPRPRPEMNPRP, the “shrunken log2 fold change” value falls from 0.0271 to -0.381.

Compared with RRIRIRPPRLPRPRPRPTVGPRP, RRIRVRPPRLPRPRPRPLWNPRP is lower in “shrunken log2 fold change” value: 0.152 for the first, -0.197 for the second.

Going from RRIRWRPPRLPRPRPRPFFRPRP to RRIRFRPPRLPRPRPRPWHFPRP, the “shrunken log2 fold change” value falls from 0.33 to -0.542.

Going from RRIRARPPRLPRPRPRPCRNPRP to RRIRHRPPRLPRPRPRPEKGPRP, the “shrunken log2 fold change” value rises from -0.38 to -0.00804.

Compared with RRIRMRPPRLPRPRPRPNLEPRP, RRIRQRPPRLPRPRPRPYIDPRP is lower in “shrunken log2 fold change” value: 0.284 for the first, -0.606 for the second.

Going from RRIRFRPPRLPRPRPRPHLDPRP to RRIRYRPPRLPRPRPRPIHHPRP, the “shrunken log2 fold change” value falls from -0.275 to -1.62.

Compared with RRIRKRPPRLPRPRPRPPAPPRP, RRIRYRPPRLPRPRPRPLRMPRP is lower in “shrunken log2 fold change” value: 1.14 for the first, 0.0288 for the second.

Going from RRIRQRPPRLPRPRPRPMMKPRP to RRIRYRPPRLPRPRPRPHMIPRP, the “shrunken log2 fold change” value falls from -0.0269 to -0.734.

Compared with RRIRERPPRLPRPRPRPFDMPRP, RRIRLRPPRLPRPRPRPYSCPRP is lower in “shrunken log2 fold change” value: -0.0448 for the first, -0.458 for the second.

Compared with RRIRSRPPRLPRPRPRPMKPPRP, RRIRMRPPRLPRPRPRPYNNPRP is lower in “shrunken log2 fold change” value: -0.0309 for the first, -0.4 for the second.

RRIRWRPPRLPRPRPRPVVPPRP and RRIRARPPRLPRPRPRPMTKPRP are within 0.2 log units of each other in “shrunken log2 fold change” value: 0.242 for the first, 0.248 for the second.

First: RRIRCRPPRLPRPRPRPVSTPRP
Second: RRIRGRPPRLPRPRPRPWCGPRP
The “shrunken log2 fold change” value of the first is lower: -0.104 for the first, 0.58 for the second.

Compared with RRIRRRPPRLPRPRPRPMNPPRP, RRIRQRPPRLPRPRPRPLYKPRP is lower in “shrunken log2 fold change” value: 0.212 for the first, -1.34 for the second.

Compared with RRIRWRPPRLPRPRPRPAFHPRP, RRIRGRPPRLPRPRPRPLDQPRP is higher in “shrunken log2 fold change” value: 0.153 for the first, 1.01 for the second.

Compared with RRIRERPPRLPRPRPRPYGIPRP, RRIRQRPPRLPRPRPRPTWMPRP is lower in “shrunken log2 fold change” value: -0.00973 for the first, -0.262 for the second.

Compared with RRIRHRPPRLPRPRPRPMKNPRP, RRIRVRPPRLPRPRPRPSYNPRP is lower in “shrunken log2 fold change” value: 0.0372 for the first, -0.485 for the second.

Compared with RRIRYRPPRLPRPRPRPNDRPRP, RRIRYRPPRLPRPRPRPSNPPRP is lower in “shrunken log2 fold change” value: -0.0645 for the first, -0.512 for the second.

First: RRIRTRPPRLPRPRPRPGAVPRP
Second: RRIRRRPPRLPRPRPRPCHTPRP
The “shrunken log2 fold change” value of the first is higher: 0.104 for the first, -0.24 for the second.

RRIRKRPPRLPRPRPRPKMQPRP and RRIRKRPPRLPRPRPRPNCIPRP are within 0.2 log units of each other in “shrunken log2 fold change” value: 0.00648 for the first, -0.0156 for the second.

RRIRLRPPRLPRPRPRPCPYPRP and RRIRMRPPRLPRPRPRPYQIPRP are within 0.2 log units of each other in “shrunken log2 fold change” value: 0.0232 for the first, -0.0607 for the second.

Compared with RRIRYRPPRLPRPRPRPAEMPRP, RRIRNRPPRLPRPRPRPHHEPRP is higher in “shrunken log2 fold change” value: -1.02 for the first, -0.534 for the second.

Going from RRIRGRPPRLPRPRPRPSKDPRP to RRIRWRPPRLPRPRPRPPSSPRP, the “shrunken log2 fold change” value rises from 0.0908 to 0.778.

RRIRHRPPRLPRPRPRPERQPRP and RRIRSRPPRLPRPRPRPRIVPRP are within 0.2 log units of each other in “shrunken log2 fold change” value: -0.0882 for the first, -0.174 for the second.

Compared with RRIRRRPPRLPRPRPRPTFDPRP, RRIRYRPPRLPRPRPRPYRDPRP is lower in “shrunken log2 fold change” value: 0.425 for the first, -0.0114 for the second.

RRIRTRPPRLPRPRPRPCGCPRP and RRIRKRPPRLPRPRPRPLKMPRP are within 0.2 log units of each other in “shrunken log2 fold change” value: 0.0633 for the first, 0.0436 for the second.

First: RRIRARPPRLPRPRPRPNQTPRP
Second: RRIRSRPPRLPRPRPRPKSPPRP
The “shrunken log2 fold change” value of the first is lower: 0.064 for the first, 0.291 for the second.

RRIRLRPPRLPRPRPRPDTAPRP and RRIRKRPPRLPRPRPRPVPHPRP are within 0.2 log units of each other in “shrunken log2 fold change” value: 0.0121 for the first, 0.189 for the second.

Compared with RRIRWRPPRLPRPRPRPVWFPRP, RRIRFRPPRLPRPRPRPFYWPRP is lower in “shrunken log2 fold change” value: 0.563 for the first, -0.217 for the second.

First: RRIRGRPPRLPRPRPRPGALPRP
Second: RRIRDRPPRLPRPRPRPSEDPRP
The “shrunken log2 fold change” value of the first is higher: 0.723 for the first, 0.00101 for the second.

First: RRIRWRPPRLPRPRPRPPTFPRP
Second: RRIRGRPPRLPRPRPRPPKHPRP
The “shrunken log2 fold change” value of the first is lower: -0.0697 for the first, 0.567 for the second.

Going from RRIRGRPPRLPRPRPRPPWVPRP to RRIRKRPPRLPRPRPRPEAFPRP, the “shrunken log2 fold change” value falls from 0.753 to 0.434.

RRIRARPPRLPRPRPRPHTLPRP and RRIRFRPPRLPRPRPRPCNTPRP are within 0.2 log units of each other in “shrunken log2 fold change” value: -0.213 for the first, -0.0482 for the second.

First: RRIRKRPPRLPRPRPRPVINPRP
Second: RRIRDRPPRLPRPRPRPWCSPRP
The “shrunken log2 fold change” value of the first is higher: -0.0513 for the first, -0.348 for the second.

RRIRVRPPRLPRPRPRPGQSPRP and RRIRRRPPRLPRPRPRPEYQPRP are within 0.2 log units of each other in “shrunken log2 fold change” value: 0.0938 for the first, 0.119 for the second.

Compared with RRIRYRPPRLPRPRPRPTVNPRP, RRIRPRPPRLPRPRPRPFMCPRP is higher in “shrunken log2 fold change” value: -0.45 for the first, -0.164 for the second.

Compared with RRIRMRPPRLPRPRPRPALVPRP, RRIRIRPPRLPRPRPRPHQHPRP is lower in “shrunken log2 fold change” value: 0.327 for the first, -0.351 for the second.

RRIRGRPPRLPRPRPRPFLGPRP and RRIRIRPPRLPRPRPRPVQWPRP are within 0.2 log units of each other in “shrunken log2 fold change” value: 0.0188 for the first, 0.0754 for the second.

First: RRIRRRPPRLPRPRPRPPFVPRP
Second: RRIRARPPRLPRPRPRPYALPRP
The “shrunken log2 fold change” value of the first is higher: 0.675 for the first, 0.0681 for the second.

First: RRIRWRPPRLPRPRPRPNHQPRP
Second: RRIRCRPPRLPRPRPRPQIKPRP
The “shrunken log2 fold change” value of the first is higher: -0.342 for the first, -0.762 for the second.

Compared with RRIRIRPPRLPRPRPRPPKWPRP, RRIRPRPPRLPRPRPRPFHGPRP is lower in “shrunken log2 fold change” value: -0.00369 for the first, -0.252 for the second.

First: RRIRGRPPRLPRPRPRPDHVPRP
Second: RRIRQRPPRLPRPRPRPWMWPRP
The “shrunken log2 fold change” value of the first is higher: 0.0598 for the first, -0.457 for the second.

RRIRFRPPRLPRPRPRPNSRPRP and RRIRHRPPRLPRPRPRPIFSPRP are within 0.2 log units of each other in “shrunken log2 fold change” value: -0.0396 for the first, -0.176 for the second.

RRIRYRPPRLPRPRPRPGLWPRP and RRIRWRPPRLPRPRPRPWNHPRP are within 0.2 log units of each other in “shrunken log2 fold change” value: 0.032 for the first, -0.0518 for the second.

Compared with RRIRPRPPRLPRPRPRPQPRPRP, RRIRTRPPRLPRPRPRPQHWPRP is lower in “shrunken log2 fold change” value: 0.603 for the first, 0.08 for the second.

RRIRYRPPRLPRPRPRPDCEPRP and RRIRQRPPRLPRPRPRPALCPRP are within 0.2 log units of each other in “shrunken log2 fold change” value: 0.0295 for the first, 0.171 for the second.

RRIRTRPPRLPRPRPRPVQRPRP and RRIRHRPPRLPRPRPRPWSTPRP are within 0.2 log units of each other in “shrunken log2 fold change” value: 0.132 for the first, -0.0631 for the second.

RRIRERPPRLPRPRPRPIVCPRP and RRIRERPPRLPRPRPRPCNAPRP are within 0.2 log units of each other in “shrunken log2 fold change” value: -0.022 for the first, -0.0483 for the second.

Compared with RRIRQRPPRLPRPRPRPVHSPRP, RRIRWRPPRLPRPRPRPTHWPRP is higher in “shrunken log2 fold change” value: -0.0049 for the first, 0.322 for the second.

RRIRKRPPRLPRPRPRPIRMPRP and RRIRYRPPRLPRPRPRPANFPRP are within 0.2 log units of each other in “shrunken log2 fold change” value: -0.0295 for the first, 0.0515 for the second.

In the case of RRIRRRPPRLPRPRPRPYIPPRP, the “shrunken log2 fold change” value is reported as -0.468.
